Holding throughout (assay): purified protein, by the assay type
Data set [1] concerns CC(=O)N[C@H]1[C@H]([C@H](O)[C@H](O)CO)O[C@@](OCCCNC(=O)OCc2ccccc2)(C(=O)O)C[C@@H]1O[C@H]1O[C@H](CO[C@]2(C(=O)O)C[C@H](O[C@H]3O[C@H](CO[C@]4(C(=O)O)C[C@H](O)[C@@H](NC(C)=O)[C@H]([C@H](O)[C@H](O)CO)O4)[C@H](O)[C@H](O)[C@H]3O)[C@@H](NC(C)=O)[C@H]([C@H](O)[C@H](O)CO)O2)[C@H](O)[C@H](O)[C@H]1O. The note with it: other: apparent, varying acceptor, 2 mM UDP-Gal, pH 6.5, 30° C.
The subject of data set [2] is CC(=O)N[C@H]1[C@H]([C@H](O)[C@H](O)CO)O[C@@](OCCCNC(=O)OCc2ccccc2)(C(=O)O)C[C@@H]1O. The note with it: other: apparent, varying acceptor, 2 mM UDP-Gal, pH 6.5, 30° C.
Data set [3] concerns CC(=O)N[C@H]1[C@H]([C@H](O)[C@H](O)CO)O[C@@](OCCCNC(=O)OCc2ccccc2)(C(=O)O)C[C@@H]1O[C@H]1O[C@H](CO[C@]2(C(=O)O)C[C@H](O)[C@@H](NC(C)=O)[C@H]([C@H](O)[C@H](O)CO)O2)[C@H](O)[C@H](O)[C@H]1O. The following applies: other: apparent, varying acceptor, 2 mM UDP-Gal, pH 6.5, 30° C.
Data set [4] concerns CC(=O)N[C@H]1[C@H]([C@H](O)[C@H](O)CO)O[C@@](OCCCNC(=O)OCc2ccccc2)(C(=O)O)C[C@@H]1O[C@H]1O[C@H](CO)[C@H](O)[C@H](O)[C@H]1O. The note with it: other: apparent, varying acceptor, 10 mM CMP-Neu5Ac, pH 8.0, 30° C.
For data set [5], the system named is CC(=O)N[C@H]1[C@H]([C@H](O)[C@H](O)CO)O[C@@](OC[C@H]2O[C@H](O[C@H]3C[C@](OC[C@H]4O[C@H](O[C@H]5C[C@](OC[C@H]6O[C@H](O[C@H]7C[C@](OCCCNC(=O)OCc8ccccc8)(C(=O)O)O[C@@H]([C@H](O)[C@H](O)CO)[C@@H]7NC(C)=O)[C@H](O)[C@@H](O)[C@H]6O)(C(=O)O)O[C@@H]([C@H](O)[C@H](O)CO)[C@@H]5NC(C)=O)[C@H](O)[C@@H](O)[C@H]4O)(C(=O)O)O[C@@H]([C@H](O)[C@H](O)CO)[C@@H]3NC(C)=O)[C@H](O)[C@@H](O)[C@H]2O)(C(=O)O)C[C@@H]1O[C@H]1O[C@H](CO)[C@H](O)[C@H](O)[C@H]1O. The note with it: other: apparent, varying acceptor, 10 mM CMP-Neu5Ac, pH 8.0, 30° C.

Data set [6] concerns CC(=O)N[C@H]1[C@H]([C@H](O)[C@H](O)CO)O[C@@](OC[C@H]2O[C@H](O[C@H]3C[C@](OCCCNC(=O)OCc4ccccc4)(C(=O)O)O[C@@H]([C@H](O)[C@H](O)CO)[C@@H]3NC(C)=O)[C@H](O)[C@@H](O)[C@H]2O)(C(=O)O)C[C@@H]1O[C@H]1O[C@H](CO)[C@H](O)[C@H](O)[C@H]1O. The following applies: other: apparent, varying acceptor, 10 mM CMP-Neu5Ac, pH 8.0, 30° C.
The test system of data set [7] is CC(=O)N[C@H]1[C@H]([C@H](O)[C@H](O)CO)O[C@@](OC[C@H]2O[C@H](O[C@H]3C[C@](OC[C@H]4O[C@H](O[C@H]5C[C@](OC[C@H]6O[C@H](O[C@H]7C[C@](OC[C@H]8O[C@H](O[C@H]9C[C@](OCCCNC(=O)OCc%10ccccc%10)(C(=O)O)O[C@@H]([C@H](O)[C@H](O)CO)[C@@H]9NC(C)=O)[C@H](O)[C@@H](O)[C@H]8O)(C(=O)O)O[C@@H]([C@H](O)[C@H](O)CO)[C@@H]7NC(C)=O)[C@H](O)[C@@H](O)[C@H]6O)(C(=O)O)O[C@@H]([C@H](O)[C@H](O)CO)[C@@H]5NC(C)=O)[C@H](O)[C@@H](O)[C@H]4O)(C(=O)O)O[C@@H]([C@H](O)[C@H](O)CO)[C@@H]3NC(C)=O)[C@H](O)[C@@H](O)[C@H]2O)(C(=O)O)C[C@@H]1O[C@H]1O[C@H](CO)[C@H](O)[C@H](O)[C@H]1O. The following applies: other: apparent, varying acceptor, 10 mM CMP-Neu5Ac, pH 8.0, 30° C.

Data set [8] has as its system CC(=O)N[C@H]1[C@H]([C@H](O)[C@H](O)CO)O[C@@](OC[C@H]2O[C@H](O[C@H]3C[C@](OC[C@H]4O[C@H](O[C@H]5C[C@](OCCCNC(=O)OCc6ccccc6)(C(=O)O)O[C@@H]([C@H](O)[C@H](O)CO)[C@@H]5NC(C)=O)[C@H](O)[C@@H](O)[C@H]4O)(C(=O)O)O[C@@H]([C@H](O)[C@H](O)CO)[C@@H]3NC(C)=O)[C@H](O)[C@@H](O)[C@H]2O)(C(=O)O)C[C@@H]1O[C@H]1O[C@H](CO)[C@H](O)[C@H](O)[C@H]1O. The note with it: other: apparent, varying acceptor, 10 mM CMP-Neu5Ac, pH 8.0, 30° C.

What is called Km is the concentration of substrate that gives half-maximal velocity. The kcat is the maximal rate divided by the concentration of active sites. Usually kcat/Km stands for the turnover number divided by the Michaelis constant. For the substance “NmSiaDW galactosyltransferase activity (Neisseria meningitidis)”, in data set [1], the Michaelis constant (Km) came to 100 ± 20 µM, the kcat was 5.3 ± 0.2 s⁻¹ and the catalytic efficiency (kcat/Km) worked out at 51000 M⁻¹ s⁻¹. In data set [2], the kcat/Km was 47 M⁻¹ s⁻¹. Moreover, in data set [3], the Michaelis-Menten constant (Km) came to 890 ± 100 µM, the kcat stood at 8.8 ± 0.4 s⁻¹ and the specificity constant (kcat/Km) was determined as 10000 M⁻¹ s⁻¹.
Regarding “NmSiaDW sialyltransferase activity (Neisseria meningitidis)”, the results for the Km in data set [4] and in data set [6] were 180 ± 40 µM and 240 ± 40 µM, respectively. The kcat in data set [4] is 9.76 ± 0.55 s⁻¹; in data set [5], 7.03 to 11.9 s⁻¹; in data set [6], 23.1 ± 1.1 s⁻¹; in data set [7] it was 7.03 to 11.9 s⁻¹; in data set [8] it was 7.03 to 11.9 s⁻¹. Further, the kcat/Km in data set [4] is 55000 M⁻¹ s⁻¹; in data set [6] it was 97000 M⁻¹ s⁻¹.

The values are drawn from patent US20220145343A1 (priority 2019, published 2022).
